In PMC2941729 (Molecular Microbiology, 2010):

Molecular target: the molecule itself
Test: SEC

B1: G266DΔGAF–His (domain or fragment, Escherichia coli K12, UniProt P37013 171-504, looked up)
chain: MLPGDATPFEAVKQTQMIGLSPGMTQLKKEIEIVAASDLNVLISGETGTGKELVAKAIHEASPRAVNPLVYLNCAALPESVAESELFGHVKGAFTDAISNRSGKFEMADNGTLFLDEIGELSLALQAKLLRVLQYGDIQRVGDDRCLRVDVRVLAATNRDLREEVLAGRFRADLFHRLSVFPLSVPPLRERGDDVILLAGYFCEQCRLRQGLSRVVLSAGARNLLQHYSFPGNVRELEHAIHRAVVLARATRSGDEVILEAQHFAFPEVTLPTPEVAAVPVVKQNLREATEAFQRETIRQALAQNHHNWAACARMLETDVANLHRLAKRLGLKD
- binding result: binds
